Reference: the supplement of paper PMC7125110
± gives the standard error. This sample holds only a part of the variants without activity.

B1: glmS ribozyme (parent)
chain: AUAAAAGCGCCAGAACUACAGAAAUGUAGUUGACGAGGAGGAGGUUUAUCGAAUUUUCGGCGGAUGCCUCCAAA

Variants of: B1
Assay: self-cleavage kobs at 2500 uM GlcN6P; higher = faster cleavage; RNA array
Details: with glucosamine-6-phosphate
Method in brief: (§1)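 Barcoded ribozyme variants on sequenced MiSeq chips were transcribed in situ by E. coli RNA polymerase and followed at 37 °C through a hybridised Cy3 probe. Glucosamine-6-phosphate at 40 μM to 10 mM in HEPES/KCl/Mg(OAc)2 buffer was flowed in, and tiles were imaged over ~14 h. Signals were normalised to baseline and to non-cleaving reference variants, and per-tile medians were fit to one- or two-exponential decays to give kobs. Weighted Michaelis–Menten fits across concentrations gave kcat and KM.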

AUAAAAGCGCCAGAACUACAGAAAUGUAGUUGAGGAGGAGGCGGUUUGUCGAAUUUUCGGCGGAUGCCUCCAAA and AUAAAAGCGCCAGAACUACAGAAAUGUAGUUGCCGAGGAGGAGGUUUAGCGAAUUUUCGGCGGAUGCCCCCAAA cannot be ordered by “self-cleavage kobs at 2500 uM GlcN6P” value: less than 1e-05 s⁻¹ for the first, less than 1e-05 s⁻¹ for the second.

AUAAAAGCGCCAGAACUACAGAAAUGUAGUUGAAGAGGAGGAAGUUUAUCGAAUUUUCGGCGGGUGCCUCCAAA and AUAAAAGCGCCAGAACUACAGAAAUGUAGUUUACGAGGAGGAGGUUUAUCGAACUUUCCGCGGAUGCUUCCAAA cannot be ordered by “self-cleavage kobs at 2500 uM GlcN6P” value: less than 1e-05 s⁻¹ for the first, less than 1e-05 s⁻¹ for the second.

AUAAAAGCGCCAGAACUACAGAAAUGUAGUUGAGAAGGAGGAGGUUUACCGAAUUUUCGGCGGAUGCCUCCAAA and AUAAAAGCGCCAGAACUACAGAAAUGUAGUUGUCGAGGAGGAUGUUUAUCGAAAUUUCGACGGAUGCCUCCAAA cannot be ordered by “self-cleavage kobs at 2500 uM GlcN6P” value: less than 1e-05 s⁻¹ for the first, less than 1e-05 s⁻¹ for the second.

First: AUAAAAGCGCCAGAACUACAGAAAUGUAGUUUACGAGGAGGGGGUUUAUCGAAUUUUGGGCGGAUGCCUUCAAA
Second: AUAAAAGCGCCAGAACUACAGAAAUGUAGUUGUCGAGGAGGGGGUUUAUCGAAUUUUCGGAGGAUACCUCCAAA
The “self-cleavage kobs at 2500 uM GlcN6P” value of the first is higher: 0.000198 ± 8.4e-05 s⁻¹ for the first, less than 1e-05 s⁻¹ for the second.

AUAAAAGCGCCAGAACUACAGAAAUGUAGUUGGCGAGGAGGAGGUUAAUCGCAUUUUCGGCGGAUGCCUACAAA and AUAAAAGCGCCAGAACUACAGAAAUGUAGUUGGCGAGGAGGAGGUUUAUCGAAUUUUCCGCGGAUGCUUCCAAA cannot be ordered by “self-cleavage kobs at 2500 uM GlcN6P” value: less than 1e-05 s⁻¹ for the first, less than 1e-05 s⁻¹ for the second.

AUAAAAGCGCCAGAACUACAGAAAUGUAGUUGCCUAGGAGGAGGUUUAUCGAAUUUCCGGCGGAUGCCUCCAAA and AUAAAAGCGCCAGAACUACAGAAAUGUAGUUGAUGAGGAGGAGGUUAAUCGAAUUUUCUGCGGCUGCCUUCAAA cannot be ordered by “self-cleavage kobs at 2500 uM GlcN6P” value: less than 1e-05 s⁻¹ for the first, less than 1e-05 s⁻¹ for the second.

Compared with AUAAAAGCGCCAGAACUACAGAAAUGUAGUUGAGGUGGAAGAGGUUUAUCGAAUUUUCGGCGGCUGCCUCGAAA, AUAAAAGCGCCAGAACUACAGAAAUGUAGUUUACGAGGAGGAGGUUUAUCGAAUGGUCGGCGGAUGCCUCCAAA is higher in “self-cleavage kobs at 2500 uM GlcN6P” value: less than 1e-05 s⁻¹ for the first, 0.000148 ± 4.3e-05 s⁻¹ for the second.

AUAAAAGCGCCAGAACUACAGAAAUGUAGUUUACGAGGAGGAGGUCUAUCGAAUUUUCGGCGGAUGCAUCUAAA and AUAAAAGCGCCAGAACUACAGAAAUGUAGUUGCCGAGGAGGAGGUUUAUCGAAUUCUCGGCGUAUGCCUCCAAA cannot be ordered by “self-cleavage kobs at 2500 uM GlcN6P” value: less than 1e-05 s⁻¹ for the first, less than 1e-05 s⁻¹ for the second.

AUAAAAGCGCCAGAACUACAGAAAUGUAGUUGAGGAGGAGGAGGUUUAUCGAAUUUUCAGCGGAUGCCUCCAAA and AUAAAAGCGCCAGAACUACAGAAAUGUAGUUGACAAGGAGGAGGUUUAUAGAAUUUGCGGCGGAUGCCUCCAAA cannot be ordered by “self-cleavage kobs at 2500 uM GlcN6P” value: less than 1e-05 s⁻¹ for the first, less than 1e-05 s⁻¹ for the second.

AUAAAAGCGCCAGAACUACAGAAAUGUAGUUGAGGAGGGGGAGGUUUAUCGAAUUUUCGUCGGAUGCCUCCAAA and AUAAAAGCGCCAGAACUACAGAAAUGUAGUUGGCGAGGAGGAGGUGUAUCGAAUUUUCGGCGGAUGCCUUCAAA cannot be ordered by “self-cleavage kobs at 2500 uM GlcN6P” value: less than 1e-05 s⁻¹ for the first, less than 1e-05 s⁻¹ for the second.

AUAAAAGCGCCAGAACUACAGAAAUGUAGUUGCCGAGGAGGAGGUUUAUCGACUUUUCGGGGGAUGCCUCCAAA and AUAAAAGCGCCAGAACUACAGAAAUGUAGUUGAAGAGGAGGAGUUUUAUCGAAUUUUGGGCGGAUGCCUCCAAA cannot be ordered by “self-cleavage kobs at 2500 uM GlcN6P” value: less than 1e-05 s⁻¹ for the first, less than 1e-05 s⁻¹ for the second.

AUAAAAGCGCCAGAACUACAGAAAUGUAGUUGAUGAGGAGAAGGUUUAUCGUAUUUUCGGCGGAUGCCUCCAAA and AUAAAAGCGCCAGAACUACAGAAAUGUAGUUGACAAGGAAGAGGUUUAUCGAAUUUUCGGCGGAUUCCUCCAAA cannot be ordered by “self-cleavage kobs at 2500 uM GlcN6P” value: less than 1e-05 s⁻¹ for the first, less than 1e-05 s⁻¹ for the second.

AUAAAAGCGCCAGAACUACAGAAAUGUAGUUGGCGAGGAGGAGGUUCAUCGAAUUUUCGGGGGAUGCCUCCAAA and AUAAAAGCGCCAGAACUACAGAAAUGUAGUUGAUGAGGUGCAGGUUUAUCGAAUUUUCGGCGGAUGCCGCCAAA cannot be ordered by “self-cleavage kobs at 2500 uM GlcN6P” value: less than 1e-05 s⁻¹ for the first, less than 1e-05 s⁻¹ for the second.

AUAAAAGCGCCAGAACUACAGAAAUGUAGUUGUUGAGGCGGAGGUUUAUCGAAUUUUCGGCGGAUGCCUCCAAA and AUAAAAGCGCCAGAACUACAGAAAUGUAGUUGCCAAGCAGGAGGUUUAUCGUAUUUUCGGCGGACGCGUCCAAA cannot be ordered by “self-cleavage kobs at 2500 uM GlcN6P” value: less than 1e-05 s⁻¹ for the first, less than 1e-05 s⁻¹ for the second.

AUAAAAGCGCCAGAACUACAGAAAUGUAGUUGACAAGGAGGAGGUUUAUCGAAUUUUCGGUGGAUGCCUCCAAA and AUAAAAGCGCCAGAACUACAGAAAUGUAGUUGAUGAGGAGGAGGUUUUUCGAAUUUUCCGCGGAUGCACCCAAA cannot be ordered by “self-cleavage kobs at 2500 uM GlcN6P” value: less than 1e-05 s⁻¹ for the first, less than 1e-05 s⁻¹ for the second.

AUAAAAGCGCCAGAACUACAGAAAUGUAGUUUACGAUGAGGAGGUUUAUCGAAUUUUUGGCGGAUGCCUCCAAA and AUAAAAGCGCCAGAACUACAGAAAUGUAGUUGCCGUGCAGGAGGUUUAUCGAAUUUUCGGCGGAUGCCUCCAAA cannot be ordered by “self-cleavage kobs at 2500 uM GlcN6P” value: less than 1e-05 s⁻¹ for the first, less than 1e-05 s⁻¹ for the second.

AUAAAAGCGCCAGAACUACAGAAAUGUAGUUGUCGAGGAGGAGGUUUUUCGAAUUUUCGGCUGAUGCCUCCAAA and AUAAAAGCGCCAGAACUACAGAAAUGUAGUUGGCGUGGAGGAGGUUUAUCGAAUUUUCGGCGGAGGCCUCCAAA cannot be ordered by “self-cleavage kobs at 2500 uM GlcN6P” value: less than 1e-05 s⁻¹ for the first, less than 1e-05 s⁻¹ for the second.

Variants of: B1
Assay: self-cleavage kobs at 10000 uM GlcN6P; higher = faster cleavage; RNA array
Details: with glucosamine-6-phosphate
Method in brief: as §1

First: AUAAAAGCGCCAGAACUACAGAAAUGUAGUUUACGAGGAGGAGGUUUAUCGAAUGGUCGGCGGAUGCCUCCAAA
Second: AUAAAAGCGCCAGAACUACAGAAAUGUAGUUGAGGAGGAGGAGGUUUAUCGAAUUUUCAGCGGAUGCCUCCAAA
The “self-cleavage kobs at 10000 uM GlcN6P” value of the first is higher: 0.000376 ± 8.4e-05 s⁻¹ for the first, less than 1e-05 s⁻¹ for the second.

With AUAAAAGCGCCAGAACUACAGAAAUGUAGUUGGCGAGGAGGAGGUGUAUCGAAUUUUCGGCGGAUGCCUUCAAA the “self-cleavage kobs at 10000 uM GlcN6P” value was less than 1e-05 s⁻¹.
